Data reported in patent publication US20100015126A1, “Methods of Binding of Cross-Beta Structures By Chaperones” (priority 2006, published 2010).

Columns and labels:
[1] = target: Hypothetical protein/Heat shock 70 kDa protein 5 (glucose-regulated protein, 78 kDa = GRP78 = BiP = HSPA5), as identified in eluates (human) (UniProt P11021); experiment: BiP-Sepharose pull-down, RA synovial fluid sample 5B, 1 M NaCl eluate, MS; BiP may stem from the column
[2] = target: GCN1 general control of amino-acid synthesis 1-like 1 (yeast)/GCN1-like protein 1 (HsGCN1) (human) (UniProt Q92616); experiment: BiP-Sepharose pull-down, RA patient III serum (B4), MS of urea eluate; may be indirect
[3] = target: IGLC1 protein (immunoglobulin lambda C1)/immunoglobulin lambda chain/immunoglobulin C1 segment protein (fragment) (human) (UniProt P0CG04); experiment: as above
[4] = target: Alpha-1-antitrypsin precursor/Serpin peptidase inhibitor, clade A, member 1 (human) (UniProt P01009); experiment: as above
[5] = target: Hypothetical protein DKFZp686I04196 (Fragment)/Immunoglobulin heavy constant gamma 2 (G2m marker)/Ig gamma-2 chain C region (human) [IgG part: P01859]; experiment: as above
[6] = target: 187 kDa protein/Complement component 3 (human) (UniProt P01024); experiment: as above
[7] = target: Phosphatase and actin regulator 4 isoform 1/Hypothetical protein DKFZp686L07205 (human) (UniProt Q8IZ21); experiment: as above
[8] = target: Isoform 1 of Plectin-1 (human) (UniProt Q15149); experiment: as above
[9] = target: Immunoglobulin lambda variable 3-25/V2-17 protein (Fragment) (human) (UniProt P01717); experiment: as above
[10] = target: Histidine-rich glycoprotein precursor (human) (UniProt P04196); experiment: BiP-Sepharose pull-down, RA synovial fluid sample 2B, 1 M NaCl eluate, MS; may be indirect
[11] = target: fibronectin 1 isoform 4 preproprotein (human) (UniProt P02751); experiment: as above
[12] = target: IGHG4 protein, immunoglobulin heavy constant gamma 4 (human) [IgG part: P01861]; experiment: as above
[13] = target: IGHM protein, coagulation factor VII (serum prothrombin conversion accelerator) (human) (UniProt P08709); experiment: as above
[14] = target: Heat shock 70 kDa protein 1L (human) (UniProt P34931); experiment: as above
[15] = target: Hypothetical protein DKFZp686I04196 (Fragment)/Immunoglobulin heavy constant gamma 2 (G2m marker)/Ig gamma-2 chain C region (human) [IgG part: P01859]; experiment: as above
[16] = target: Neutrophil defensin 1 precursor (human) (UniProt P59665); experiment: as above
[17] = target: Clusterin precursor (human) (UniProt P10909); experiment: as above
[18] = target: FLJ00385 protein (Fragment), immunoglobulin heavy constant mu (human) (UniProt P01871); experiment: as above
[19] = target: Hypothetical protein/Heat shock 70 kDa protein 5 (glucose-regulated protein, 78 kDa = GRP78 = BiP = HSPA5), as identified in eluates (human) (UniProt P11021); experiment: BiP-Sepharose pull-down, RA patient IV synovial fluid (B6), MS of urea eluate; BiP may stem from the column
[20] = target: IGLC1 protein (immunoglobulin lambda C1)/immunoglobulin lambda chain/immunoglobulin C1 segment protein (fragment) (human) (UniProt P0CG04); experiment: BiP-Sepharose pull-down, AL amyloidosis patient II plasma (B3), MS of urea eluate; may be indirect
[21] = target: Hypothetical protein/Ig kappa chain V-II region RPMI 6410 precursor (human) (UniProt P06310); experiment: as above
[22] = target: V1-3 protein (Fragment)/immunoglobulin lambda variable 2-11 (human) (UniProt P01706); experiment: as above
[23] = target: Apolipoprotein E precursor/Apolipoprotein E/Apolipoprotein E3 (Fragment) (human) (UniProt P02649); experiment: as above
[24] = target: Complement factor H-related protein 3 precursor (human) (UniProt Q02985); experiment: as above
[25] = target: Isoform 1 of Plectin-1 (human) (UniProt Q15149); experiment: as above
[26] = target: 25 kDa protein/immunoglobulin lambda chain/rheumatoid factor G9 light chain (lambda V3)/IGLC1 protein (human) (UniProt P0CG04); experiment: as above
[27] = target: Dynein heavy chain domain 3/KIAA1503 protein (Fragment) (human) (UniProt Q9P225); experiment: as above
[28] = target: Immunoglobulin heavy constant gamma 3 (G3m marker)/Ig gamma-3 chain C region (human) (UniProt P01860); experiment: as above

Hypothetical protein/Heat shock 70 kDa protein 5 (glucose-regulated protein, 78 kDa = GRP78 = BiP = HSPA5), as identified in eluates (human), sequence (P11021 19-654 limits assumed): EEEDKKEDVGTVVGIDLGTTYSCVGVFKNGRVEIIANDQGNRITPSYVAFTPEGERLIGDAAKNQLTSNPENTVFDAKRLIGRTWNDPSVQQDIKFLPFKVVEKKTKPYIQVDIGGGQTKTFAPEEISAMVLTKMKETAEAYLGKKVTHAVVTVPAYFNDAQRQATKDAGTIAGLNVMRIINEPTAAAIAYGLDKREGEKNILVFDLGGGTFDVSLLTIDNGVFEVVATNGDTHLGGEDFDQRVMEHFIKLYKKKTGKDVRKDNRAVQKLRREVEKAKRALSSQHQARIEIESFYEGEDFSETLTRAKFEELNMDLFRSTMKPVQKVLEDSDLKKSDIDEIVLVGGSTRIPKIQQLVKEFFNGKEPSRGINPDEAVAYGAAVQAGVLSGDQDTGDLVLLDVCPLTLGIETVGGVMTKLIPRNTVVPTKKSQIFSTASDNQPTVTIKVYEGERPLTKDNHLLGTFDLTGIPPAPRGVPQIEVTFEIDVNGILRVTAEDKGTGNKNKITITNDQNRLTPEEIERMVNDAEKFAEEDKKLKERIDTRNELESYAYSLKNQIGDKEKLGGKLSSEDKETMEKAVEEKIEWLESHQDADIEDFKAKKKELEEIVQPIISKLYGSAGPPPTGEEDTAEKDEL
IGLC1 protein (immunoglobulin lambda C1)/immunoglobulin lambda chain/immunoglobulin C1 segment protein (fragment) (human), sequence (P0CG04 whole entry, the tested form may be a part): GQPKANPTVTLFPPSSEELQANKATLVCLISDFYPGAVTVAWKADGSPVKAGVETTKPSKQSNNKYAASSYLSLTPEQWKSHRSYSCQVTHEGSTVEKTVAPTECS
Hypothetical protein DKFZp686I04196 (Fragment)/Immunoglobulin heavy constant gamma 2 (G2m marker)/Ig gamma-2 chain C region (human) [IgG part: P01859], sequence (P01859 other isoform, or with tags, fused parts or gaps limits assumed): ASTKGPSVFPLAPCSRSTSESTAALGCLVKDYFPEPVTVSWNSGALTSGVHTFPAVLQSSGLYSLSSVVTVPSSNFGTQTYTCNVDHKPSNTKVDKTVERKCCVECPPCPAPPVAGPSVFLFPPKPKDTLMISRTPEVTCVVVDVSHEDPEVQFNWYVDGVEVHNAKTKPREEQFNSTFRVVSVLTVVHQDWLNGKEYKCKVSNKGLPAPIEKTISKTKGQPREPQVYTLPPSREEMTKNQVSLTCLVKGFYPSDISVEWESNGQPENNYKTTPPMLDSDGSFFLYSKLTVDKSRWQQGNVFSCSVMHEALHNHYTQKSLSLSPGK
GCN1 general control of amino-acid synthesis 1-like 1 (yeast)/GCN1-like protein 1 (HsGCN1) (human), sequence (Q92616 2-2671 limits assumed): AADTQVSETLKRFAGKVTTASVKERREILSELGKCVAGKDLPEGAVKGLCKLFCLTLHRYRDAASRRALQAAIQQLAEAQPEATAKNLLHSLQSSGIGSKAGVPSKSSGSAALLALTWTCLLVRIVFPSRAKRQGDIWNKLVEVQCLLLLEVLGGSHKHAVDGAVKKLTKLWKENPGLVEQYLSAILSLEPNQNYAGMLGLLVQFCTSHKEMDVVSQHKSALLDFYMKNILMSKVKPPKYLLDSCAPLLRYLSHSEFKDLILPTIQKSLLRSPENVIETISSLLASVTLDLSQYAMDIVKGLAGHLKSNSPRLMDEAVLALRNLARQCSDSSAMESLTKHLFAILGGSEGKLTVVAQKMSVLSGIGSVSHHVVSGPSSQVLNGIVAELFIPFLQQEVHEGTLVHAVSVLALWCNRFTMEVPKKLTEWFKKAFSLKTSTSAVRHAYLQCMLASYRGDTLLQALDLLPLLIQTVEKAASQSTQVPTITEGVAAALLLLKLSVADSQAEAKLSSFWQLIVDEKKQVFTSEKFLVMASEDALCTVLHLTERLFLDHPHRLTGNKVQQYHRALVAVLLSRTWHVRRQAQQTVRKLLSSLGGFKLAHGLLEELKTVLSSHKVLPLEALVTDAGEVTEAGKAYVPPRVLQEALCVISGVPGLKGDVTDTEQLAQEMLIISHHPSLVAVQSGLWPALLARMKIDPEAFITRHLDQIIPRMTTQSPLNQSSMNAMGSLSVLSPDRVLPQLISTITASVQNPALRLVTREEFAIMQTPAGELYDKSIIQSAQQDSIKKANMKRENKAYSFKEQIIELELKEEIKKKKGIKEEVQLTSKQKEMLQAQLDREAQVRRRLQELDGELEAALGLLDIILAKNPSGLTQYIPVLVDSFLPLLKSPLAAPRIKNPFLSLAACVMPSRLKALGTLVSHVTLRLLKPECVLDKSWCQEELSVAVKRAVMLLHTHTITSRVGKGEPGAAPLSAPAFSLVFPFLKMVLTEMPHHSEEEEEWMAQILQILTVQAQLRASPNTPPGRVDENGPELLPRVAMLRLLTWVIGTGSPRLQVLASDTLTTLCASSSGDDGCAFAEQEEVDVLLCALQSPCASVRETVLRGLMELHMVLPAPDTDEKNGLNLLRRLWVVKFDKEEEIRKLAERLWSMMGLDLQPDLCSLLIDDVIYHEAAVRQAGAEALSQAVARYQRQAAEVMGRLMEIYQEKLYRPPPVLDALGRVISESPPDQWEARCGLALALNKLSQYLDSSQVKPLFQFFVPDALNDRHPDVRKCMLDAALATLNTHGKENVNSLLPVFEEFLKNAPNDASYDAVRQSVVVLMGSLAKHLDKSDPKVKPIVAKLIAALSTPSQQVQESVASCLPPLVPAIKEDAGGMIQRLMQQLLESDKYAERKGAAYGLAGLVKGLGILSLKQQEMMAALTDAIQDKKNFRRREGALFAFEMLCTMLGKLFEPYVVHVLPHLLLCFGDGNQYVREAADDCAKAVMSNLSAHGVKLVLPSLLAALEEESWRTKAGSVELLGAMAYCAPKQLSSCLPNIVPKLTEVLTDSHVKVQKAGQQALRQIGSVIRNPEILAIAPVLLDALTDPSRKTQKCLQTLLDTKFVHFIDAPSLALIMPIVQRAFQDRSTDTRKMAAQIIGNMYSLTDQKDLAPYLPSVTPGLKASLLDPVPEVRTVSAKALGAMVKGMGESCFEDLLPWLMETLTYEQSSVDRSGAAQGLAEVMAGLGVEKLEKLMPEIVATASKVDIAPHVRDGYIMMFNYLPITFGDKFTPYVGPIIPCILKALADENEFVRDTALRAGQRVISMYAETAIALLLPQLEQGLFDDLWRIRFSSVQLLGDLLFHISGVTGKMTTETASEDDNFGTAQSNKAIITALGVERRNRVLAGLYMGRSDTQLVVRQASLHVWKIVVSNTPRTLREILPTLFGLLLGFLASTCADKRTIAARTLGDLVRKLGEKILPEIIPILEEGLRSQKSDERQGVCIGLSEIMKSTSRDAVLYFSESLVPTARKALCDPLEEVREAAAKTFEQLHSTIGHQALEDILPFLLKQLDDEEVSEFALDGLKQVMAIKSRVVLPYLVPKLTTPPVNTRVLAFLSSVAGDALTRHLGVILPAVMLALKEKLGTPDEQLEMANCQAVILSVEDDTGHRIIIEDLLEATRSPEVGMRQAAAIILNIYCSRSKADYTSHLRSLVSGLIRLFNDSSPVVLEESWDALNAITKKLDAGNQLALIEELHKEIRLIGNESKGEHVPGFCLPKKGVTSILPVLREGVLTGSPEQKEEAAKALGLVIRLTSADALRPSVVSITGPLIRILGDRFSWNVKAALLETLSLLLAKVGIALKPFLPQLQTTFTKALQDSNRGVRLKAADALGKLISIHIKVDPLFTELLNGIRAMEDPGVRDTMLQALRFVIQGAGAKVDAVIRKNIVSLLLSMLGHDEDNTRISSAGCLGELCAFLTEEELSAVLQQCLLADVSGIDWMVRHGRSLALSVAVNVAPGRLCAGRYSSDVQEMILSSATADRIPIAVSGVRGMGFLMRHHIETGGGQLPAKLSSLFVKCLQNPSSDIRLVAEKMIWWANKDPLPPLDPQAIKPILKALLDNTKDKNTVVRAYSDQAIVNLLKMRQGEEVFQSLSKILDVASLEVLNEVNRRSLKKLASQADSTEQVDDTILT
Immunoglobulin lambda variable 3-25/V2-17 protein (Fragment) (human), sequence (P01717 20-112 limits assumed): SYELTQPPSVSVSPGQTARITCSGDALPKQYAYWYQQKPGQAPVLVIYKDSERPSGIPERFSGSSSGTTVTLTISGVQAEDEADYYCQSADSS
Clusterin precursor (human), sequence (P10909 23-449 limits assumed, form in doubt): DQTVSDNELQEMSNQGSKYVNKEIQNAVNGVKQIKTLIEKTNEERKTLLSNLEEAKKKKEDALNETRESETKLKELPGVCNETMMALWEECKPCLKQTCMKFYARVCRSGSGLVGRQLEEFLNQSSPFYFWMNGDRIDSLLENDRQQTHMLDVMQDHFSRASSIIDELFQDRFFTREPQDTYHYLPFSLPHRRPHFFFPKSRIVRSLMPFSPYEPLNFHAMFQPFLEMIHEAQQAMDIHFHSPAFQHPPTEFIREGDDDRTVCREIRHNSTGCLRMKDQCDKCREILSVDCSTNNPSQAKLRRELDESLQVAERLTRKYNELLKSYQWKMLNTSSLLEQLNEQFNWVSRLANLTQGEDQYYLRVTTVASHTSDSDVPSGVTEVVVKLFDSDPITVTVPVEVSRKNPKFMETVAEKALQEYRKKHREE
Complement factor H-related protein 3 precursor (human), sequence (Q02985 19-330 limits assumed): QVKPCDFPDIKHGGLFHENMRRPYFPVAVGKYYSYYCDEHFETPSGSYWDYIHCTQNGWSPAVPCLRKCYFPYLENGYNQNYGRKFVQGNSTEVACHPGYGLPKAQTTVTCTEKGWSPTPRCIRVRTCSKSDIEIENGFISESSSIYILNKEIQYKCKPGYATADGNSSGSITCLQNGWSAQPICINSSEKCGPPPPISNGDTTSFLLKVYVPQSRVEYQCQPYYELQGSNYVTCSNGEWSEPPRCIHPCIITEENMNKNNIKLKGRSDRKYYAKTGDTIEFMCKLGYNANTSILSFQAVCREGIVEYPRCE
Alpha-1-antitrypsin precursor/Serpin peptidase inhibitor, clade A, member 1 (human), sequence (P01009 25-418 limits assumed): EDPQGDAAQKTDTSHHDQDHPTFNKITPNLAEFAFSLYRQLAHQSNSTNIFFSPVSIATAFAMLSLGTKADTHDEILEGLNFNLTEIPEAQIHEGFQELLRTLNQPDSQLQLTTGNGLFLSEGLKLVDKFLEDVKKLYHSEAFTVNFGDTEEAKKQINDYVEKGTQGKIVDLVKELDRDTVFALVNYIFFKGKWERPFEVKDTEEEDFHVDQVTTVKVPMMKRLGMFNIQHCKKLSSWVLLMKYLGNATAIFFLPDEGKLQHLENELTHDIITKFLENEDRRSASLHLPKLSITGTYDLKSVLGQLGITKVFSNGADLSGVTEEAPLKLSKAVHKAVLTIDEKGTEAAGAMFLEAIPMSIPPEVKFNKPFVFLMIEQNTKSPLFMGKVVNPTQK
Neutrophil defensin 1 precursor (human), sequence (P59665 65-94 limits assumed): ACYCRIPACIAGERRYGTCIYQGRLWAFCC

- # of unique peptides [1]: 10 peptides
- # of peptides [2]: 2 peptides
- # of peptides [3]: 2 peptides
- # of peptides [4]: 1 peptides
- # of peptides [5]: 14 peptides
- # of peptides [6]: 9 peptides
- # of peptides [7]: 2 peptides
- # of peptides [8]: 2 peptides
- # of peptides [9]: 10 peptides
- # of unique peptides [10]: 1 peptides
- # of unique peptides [11]: 2 peptides
- # of unique peptides [12]: 1 peptides
- # of unique peptides [13]: 1 peptides
- # of unique peptides [14]: 1 peptides
- # of unique peptides [15]: 1 peptides
- # of unique peptides [16]: 1 peptides
- # of unique peptides [17]: 1 peptides
- # of unique peptides [18]: 1 peptides
- # of peptides [19]: 31 peptides
- # of peptides [20]: 1 peptides
- # of peptides [21]: 1 peptides
- # of peptides [22]: 2 peptides
- # of peptides [23]: 1 peptides
- # of peptides [24]: 1 peptides
- # of peptides [25]: 1 peptides
- # of peptides [26]: 1 peptides
- # of peptides [27]: 2 peptides
- # of peptides [28]: 2 peptides
Substance: recombinant human BiP with C-terminal linker, FLAG-tag and His-tag (BiP-FLAG-His) (from UniProt P11021 19-654)
